Test results as given in PMC6597010 (Cell, 2019).

B1: C-terminal Strep-tag HsMCU (human mitochondrial calcium uniporter) (natural protein)
chain: VHQRIASWQNLGAVYCSTVVPSDDVTVVYQNGLPVISVRLPSRRERCQFTLKPISDSVGVFLRQLQEEDRGIDRVAIYSPDGVRVAASTGIDLLLLDDFKLVINDLTYHVRPPKRDLLSHENAATLNDVKTLVQQLYTTLCIEQHQLNKERELIERLEDLKEQLAPLEKVRIEISRKAEKRTTLVLWGGLAYMATQFGILARLTWWEYSWDIMEPVTYFITYGSAMAMYAYFVMTRQEYVYPEARDRQYLLFFHKGAKKSRFDLEKYNQLKDAIAQAEMDLKRLRDPLQVHLPLRQIGEKD
B2: human MCU/EMRE complex (one channel: MCU tetramer with four EMRE subunits) (complex)
chain 1: B1 chain
chain 2: VSAAWSGSGRSLVPSRSVIVTRSGAILPKPVKMSFGLLRVFSIVIPFLYVGTLISKNFAALLEEHDIFVPEDDDDDD

Target: the molecule itself
Experiment: cryo-EM structure

Row | Protein | stoichiometry N
1 | B1 | 4
2 | B2 | 2
